Source: publication PMC7232412

B1: unnamed (parent)
chain 1: MAVSESQLKKMVSKYKYRDLTVRETVNVITLYKDLKPVLDSYVFNDGSSRELMNLTGTIPVPYRGNTYNIPICLWLLDTYPYNPPICFVKPTSSMTIKTGKHVDANGKIYLPYLHEWKHPQSDLLGLIQVMIVVFGDEPPVFSRPISASYPPYQATGPPNTSYMPGMPGGISPYPSGYPPNPSGYPGCPYPPGGPYPATTSSQYPSQPPVTTVGPSRDGTISEDTIRASLISAVSDKLRWRMKEEMDRAQAELNALKRTEEDLKKGHQKLEEMVTRLDQEVAEVDKNIELLKKKDEELSSALEKMENQSENNDIDEVIIPTAPLYKQILNLYAEENAIEDTIFYLGEALRRGVIDLDVFLKHVRLLSRKQFQLRALMQKARKTAGLSDLY
chain 2: LQSRPEPTAPPEESFRSGVETTTPPQKQEPIDKELYPLTSLRSLFGNDPSSQ

Variants of: B1
Test: yeast 2-hybrid assay
Conditions: with partner chain of the complex shown; parent: 1; read off a plot

Variant | ratio to parent
chain 1 MAVSESQLAAMVSKYKYRDLTVRETVNVITLYKDLKPVLDSYVFNDGSSRELMNLTGTIPVPYRGNTYNIPICLWLLDTYPYNPPICFVKPTSSMTIKTGKHVDANGKIYLPYLHEWKHPQSDLLGLIQVMIVVFGDEPPVFSRPISASYPPYQATGPPNTSYMPGMPGGISPYPSGYPPNPSGYPGCPYPPGGPYPATTSSQYPSQPPVTTVGPSRDGTISEDTIRASLISAVSDKLRWRMKEEMDRAQAELNALKRTEEDLKKGHQKLEEMVTRLDQEVAEVDKNIELLKKKDEELSSALEKMENQSENNDIDEVIIPTAPLYKQILNLYAEENAIEDTIFYLGEALRRGVIDLDVFLKHVRLLSRKQFQLRALMQKARKTAGLSDLY [chain 1 K9A K10A] | 9.3
chain 1 MAVSESQLKAMVSKYKYRDLTVRETVNVITLYKDLKPVLDSYVFNDGSSRELMNLTGTIPVPYRGNTYNIPICLWLLDTYPYNPPICFVKPTSSMTIKTGKHVDANGKIYLPYLHEWKHPQSDLLGLIQVMIVVFGDEPPVFSRPISASYPPYQATGPPNTSYMPGMPGGISPYPSGYPPNPSGYPGCPYPPGGPYPATTSSQYPSQPPVTTVGPSRDGTISEDTIRASLISAVSDKLRWRMKEEMDRAQAELNALKRTEEDLKKGHQKLEEMVTRLDQEVAEVDKNIELLKKKDEELSSALEKMENQSENNDIDEVIIPTAPLYKQILNLYAEENAIEDTIFYLGEALRRGVIDLDVFLKHVRLLSRKQFQLRALMQKARKTAGLSDLY [chain 1 K10A] | 2.9
chain 1 MAVSESQLKKMVSKYAYRDLTVRETVNVITLYKDLKPVLDSYVFNDGSSRELMNLTGTIPVPYRGNTYNIPICLWLLDTYPYNPPICFVKPTSSMTIKTGKHVDANGKIYLPYLHEWKHPQSDLLGLIQVMIVVFGDEPPVFSRPISASYPPYQATGPPNTSYMPGMPGGISPYPSGYPPNPSGYPGCPYPPGGPYPATTSSQYPSQPPVTTVGPSRDGTISEDTIRASLISAVSDKLRWRMKEEMDRAQAELNALKRTEEDLKKGHQKLEEMVTRLDQEVAEVDKNIELLKKKDEELSSALEKMENQSENNDIDEVIIPTAPLYKQILNLYAEENAIEDTIFYLGEALRRGVIDLDVFLKHVRLLSRKQFQLRALMQKARKTAGLSDLY [chain 1 K16A] | 2.4
chain 1 MAVSESQLKKAAAAYKYRDLTVRETVNVITLYKDLKPVLDSYVFNDGSSRELMNLTGTIPVPYRGNTYNIPICLWLLDTYPYNPPICFVKPTSSMTIKTGKHVDANGKIYLPYLHEWKHPQSDLLGLIQVMIVVFGDEPPVFSRPISASYPPYQATGPPNTSYMPGMPGGISPYPSGYPPNPSGYPGCPYPPGGPYPATTSSQYPSQPPVTTVGPSRDGTISEDTIRASLISAVSDKLRWRMKEEMDRAQAELNALKRTEEDLKKGHQKLEEMVTRLDQEVAEVDKNIELLKKKDEELSSALEKMENQSENNDIDEVIIPTAPLYKQILNLYAEENAIEDTIFYLGEALRRGVIDLDVFLKHVRLLSRKQFQLRALMQKARKTAGLSDLY [chain 1 M11A V12A S13A K14A] | 1.9
chain 1 MAVSESAAKKMVSKYKYRDLTVRETVNVITLYKDLKPVLDSYVFNDGSSRELMNLTGTIPVPYRGNTYNIPICLWLLDTYPYNPPICFVKPTSSMTIKTGKHVDANGKIYLPYLHEWKHPQSDLLGLIQVMIVVFGDEPPVFSRPISASYPPYQATGPPNTSYMPGMPGGISPYPSGYPPNPSGYPGCPYPPGGPYPATTSSQYPSQPPVTTVGPSRDGTISEDTIRASLISAVSDKLRWRMKEEMDRAQAELNALKRTEEDLKKGHQKLEEMVTRLDQEVAEVDKNIELLKKKDEELSSALEKMENQSENNDIDEVIIPTAPLYKQILNLYAEENAIEDTIFYLGEALRRGVIDLDVFLKHVRLLSRKQFQLRALMQKARKTAGLSDLY [chain 1 Q7A L8A] | 1.1
chain 1 MAVSESQLKKMVSKYKYRDLTVRETVNVITLYKDLKPVLDAYVFNDGSSRELMNLTGTIPVPYRGNTYNIPICLWLLDTYPYNPPICFVKPTSSMTIKTGKHVDANGKIYLPYLHEWKHPQSDLLGLIQVMIVVFGDEPPVFSRPISASYPPYQATGPPNTSYMPGMPGGISPYPSGYPPNPSGYPGCPYPPGGPYPATTSSQYPSQPPVTTVGPSRDGTISEDTIRASLISAVSDKLRWRMKEEMDRAQAELNALKRTEEDLKKGHQKLEEMVTRLDQEVAEVDKNIELLKKKDEELSSALEKMENQSENNDIDEVIIPTAPLYKQILNLYAEENAIEDTIFYLGEALRRGVIDLDVFLKHVRLLSRKQFQLRALMQKARKTAGLSDLY [chain 1 S41A] | 1.3
chain 1 MAVSESQLKKMVSKYKYRDLTVRETVNVITLYKDLKPVLDSAVFNDGSSRELMNLTGTIPVPYRGNTYNIPICLWLLDTYPYNPPICFVKPTSSMTIKTGKHVDANGKIYLPYLHEWKHPQSDLLGLIQVMIVVFGDEPPVFSRPISASYPPYQATGPPNTSYMPGMPGGISPYPSGYPPNPSGYPGCPYPPGGPYPATTSSQYPSQPPVTTVGPSRDGTISEDTIRASLISAVSDKLRWRMKEEMDRAQAELNALKRTEEDLKKGHQKLEEMVTRLDQEVAEVDKNIELLKKKDEELSSALEKMENQSENNDIDEVIIPTAPLYKQILNLYAEENAIEDTIFYLGEALRRGVIDLDVFLKHVRLLSRKQFQLRALMQKARKTAGLSDLY [chain 1 Y42A] | 0.95
chain 1 MAVSESQLKKMVSKYKYRDLTVRETVNVITLYKDLKPVLDSYVFNDGSSRELMNLTGTIPVPYRGNTYNIPICLWLLDTYPANPPICFVKPTSSMTIKTGKHVDANGKIYLPYLHEWKHPQSDLLGLIQVMIVVFGDEPPVFSRPISASYPPYQATGPPNTSYMPGMPGGISPYPSGYPPNPSGYPGCPYPPGGPYPATTSSQYPSQPPVTTVGPSRDGTISEDTIRASLISAVSDKLRWRMKEEMDRAQAELNALKRTEEDLKKGHQKLEEMVTRLDQEVAEVDKNIELLKKKDEELSSALEKMENQSENNDIDEVIIPTAPLYKQILNLYAEENAIEDTIFYLGEALRRGVIDLDVFLKHVRLLSRKQFQLRALMQKARKTAGLSDLY [chain 1 Y82A] | 0.8
chain 1 MAVSESQLKKMVSKYKYRDLTVRETVNVITLYKDLKPVLDSYVFNDGSSRELMNLTGTIPVPYRGNTYNIPICLWLLDTYPYNPPICFVKPTSSMTIKTGKHVDANGKIALPYLHEWKHPQSDLLGLIQVMIVVFGDEPPVFSRPISASYPPYQATGPPNTSYMPGMPGGISPYPSGYPPNPSGYPGCPYPPGGPYPATTSSQYPSQPPVTTVGPSRDGTISEDTIRASLISAVSDKLRWRMKEEMDRAQAELNALKRTEEDLKKGHQKLEEMVTRLDQEVAEVDKNIELLKKKDEELSSALEKMENQSENNDIDEVIIPTAPLYKQILNLYAEENAIEDTIFYLGEALRRGVIDLDVFLKHVRLLSRKQFQLRALMQKARKTAGLSDLY [chain 1 Y110A] | 0.35
